Results taken from the supplement of paper PMC9112550, “Optimization of the antimicrobial peptide Bac7 by deep mutational scanning” (BMC Biology, 2022).

System: Escherichia coli TOP10
Assay: shrunken log2 fold change of peptide-encoding DNA abundance (4.5 h post-induction vs induction); higher = less antimicrobial activity (less host growth inhibition)
Settings: time post-induction: 4.5 h; library: site-saturation at positions 5, 18, 19, 20
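Further: peptides expressed intracellularly from a pBAD plasmid library in pooled LB shake-flask culture, induced with 0.3% L-arabinose, DNA abundance read by NGS, three biological replicates, DESeq2 with apeglm shrinkage.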

Sequence: RRIRWRPPRLPRPRPRPQPDPRP
- shrunken log2 fold change: 0.32

Sequence: RRIRTRPPRLPRPRPRPQNFPRP
- shrunken log2 fold change: -0.18

Sequence: RRIRARPPRLPRPRPRPKAEPRP
- shrunken log2 fold change: 0.821

Sequence: RRIRHRPPRLPRPRPRPTICPRP
- shrunken log2 fold change: -0.41

Sequence: RRIRGRPPRLPRPRPRPYSQPRP
- shrunken log2 fold change: -0.621

Sequence: RRIRTRPPRLPRPRPRPYGTPRP
- shrunken log2 fold change: -0.347

Sequence: RRIRGRPPRLPRPRPRPGVKPRP
- shrunken log2 fold change: 0.588

Sequence: RRIRTRPPRLPRPRPRPPRVPRP
- shrunken log2 fold change: 0.334

Sequence: RRIRRRPPRLPRPRPRPFMAPRP
- shrunken log2 fold change: 0.113

Sequence: RRIRGRPPRLPRPRPRPAENPRP
- shrunken log2 fold change: 0.996

Sequence: RRIRERPPRLPRPRPRPSMVPRP
- shrunken log2 fold change: -0.86

Sequence: RRIRHRPPRLPRPRPRPSVQPRP
- shrunken log2 fold change: -0.266

Sequence: RRIRPRPPRLPRPRPRPHFNPRP
- shrunken log2 fold change: -0.433

Sequence: RRIRPRPPRLPRPRPRPRVFPRP
- shrunken log2 fold change: 0.607

Sequence: RRIRWRPPRLPRPRPRPCYQPRP
- shrunken log2 fold change: 0.0103

Sequence: RRIRLRPPRLPRPRPRPYAWPRP
- shrunken log2 fold change: 0.0863

Sequence: RRIRCRPPRLPRPRPRPFPYPRP
- shrunken log2 fold change: -0.645

Sequence: RRIRGRPPRLPRPRPRPCRKPRP
- shrunken log2 fold change: -0.079

Sequence: RRIRGRPPRLPRPRPRPKNKPRP
- shrunken log2 fold change: 0.375

Sequence: RRIRARPPRLPRPRPRPQQEPRP
- shrunken log2 fold change: -0.0196

Sequence: RRIRHRPPRLPRPRPRPFATPRP
- shrunken log2 fold change: 0.106

Sequence: RRIRKRPPRLPRPRPRPADCPRP
- shrunken log2 fold change: 0.117

Sequence: RRIRCRPPRLPRPRPRPMGDPRP
- shrunken log2 fold change: -0.0113

Sequence: RRIRARPPRLPRPRPRPFSAPRP
- shrunken log2 fold change: -0.0294

Sequence: RRIRNRPPRLPRPRPRPVCAPRP
- shrunken log2 fold change: 0.559

Sequence: RRIRQRPPRLPRPRPRPGWHPRP
- shrunken log2 fold change: 0.0202

Sequence: RRIRSRPPRLPRPRPRPDITPRP
- shrunken log2 fold change: 0.0856

Sequence: RRIRRRPPRLPRPRPRPDFAPRP
- shrunken log2 fold change: 0.39

Sequence: RRIRPRPPRLPRPRPRPPCKPRP
- shrunken log2 fold change: 0.19

Sequence: RRIRPRPPRLPRPRPRPDDNPRP
- shrunken log2 fold change: -0.0275

Sequence: RRIRGRPPRLPRPRPRPRVCPRP
- shrunken log2 fold change: 1.1

Sequence: RRIRCRPPRLPRPRPRPMKMPRP
- shrunken log2 fold change: -0.0497

Sequence: RRIRGRPPRLPRPRPRPIRCPRP
- shrunken log2 fold change: 0.261

Sequence: RRIRHRPPRLPRPRPRPDGVPRP
- shrunken log2 fold change: 0.0513

Sequence: RRIRKRPPRLPRPRPRPDYPPRP
- shrunken log2 fold change: -0.0226

Sequence: RRIRARPPRLPRPRPRPAQYPRP
- shrunken log2 fold change: 0.175

Sequence: RRIRKRPPRLPRPRPRPNEIPRP
- shrunken log2 fold change: 0.118

Sequence: RRIRQRPPRLPRPRPRPGPHPRP
- shrunken log2 fold change: 0.0856

Sequence: RRIRYRPPRLPRPRPRPAREPRP
- shrunken log2 fold change: 0.00627

Sequence: RRIRQRPPRLPRPRPRPMNDPRP
- shrunken log2 fold change: -0.227

Sequence: RRIRTRPPRLPRPRPRPANEPRP
- shrunken log2 fold change: -0.226

Sequence: RRIRARPPRLPRPRPRPRECPRP
- shrunken log2 fold change: 0.804

Sequence: RRIRSRPPRLPRPRPRPQCDPRP
- shrunken log2 fold change: -0.193

Sequence: RRIRSRPPRLPRPRPRPASHPRP
- shrunken log2 fold change: -0.167

Sequence: RRIRPRPPRLPRPRPRPYNMPRP
- shrunken log2 fold change: -1.44

Sequence: RRIRNRPPRLPRPRPRPMTRPRP
- shrunken log2 fold change: -0.386

Sequence: RRIRERPPRLPRPRPRPRSTPRP
- shrunken log2 fold change: -0.259

Sequence: RRIRQRPPRLPRPRPRPGQCPRP
- shrunken log2 fold change: -0.156

Sequence: RRIRHRPPRLPRPRPRPRLAPRP
- shrunken log2 fold change: 0.206

Sequence: RRIRSRPPRLPRPRPRPAGNPRP
- shrunken log2 fold change: -0.0422

Sequence: RRIRWRPPRLPRPRPRPVQAPRP
- shrunken log2 fold change: 0.36

Sequence: RRIRDRPPRLPRPRPRPWPKPRP
- shrunken log2 fold change: -0.149

Sequence: RRIRRRPPRLPRPRPRPSDRPRP
- shrunken log2 fold change: -0.153

Sequence: RRIRLRPPRLPRPRPRPRRPPRP
- shrunken log2 fold change: 0.39

Sequence: RRIRKRPPRLPRPRPRPFEAPRP
- shrunken log2 fold change: 2.17

Sequence: RRIRARPPRLPRPRPRPWMQPRP
- shrunken log2 fold change: -0.152

Sequence: RRIRHRPPRLPRPRPRPDGGPRP
- shrunken log2 fold change: -0.137

Sequence: RRIRWRPPRLPRPRPRPFFSPRP
- shrunken log2 fold change: -0.101

Sequence: RRIRLRPPRLPRPRPRPIHCPRP
- shrunken log2 fold change: -0.0842

Sequence: RRIRRRPPRLPRPRPRPAPSPRP
- shrunken log2 fold change: 0.809
